Molecular target: Dr hemagglutinin (DraE) adhesin, Dr fimbriae (E. coli)
Assay: SPR

B1: N-domain of CEACAM6 (domain or fragment)
chain: KLTIESTPFNVAEGKEVLLLAHNLPQNRIGYSWYKGERVDGNSLIVGYVIGTQQATPGPAYSGRETIYPNASLLIQNVTQNDTGFYTLQVIKSDLVNEEATGQFHVYPEL
Question: With B1 as the binder, how does the Kd read?
Answer: Its Kd is 30.1 µM.
